What all share (test): SPOT array
The target of assay [1] is T1, Boi1 SH3 (BOI1_YEAST), P38041.
T1 chain: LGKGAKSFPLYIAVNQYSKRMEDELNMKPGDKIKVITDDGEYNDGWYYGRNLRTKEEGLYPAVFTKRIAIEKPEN

Assay [2] deals with T2, Boi2 SH3 (BOI2_YEAST), P39969.
T2 chain: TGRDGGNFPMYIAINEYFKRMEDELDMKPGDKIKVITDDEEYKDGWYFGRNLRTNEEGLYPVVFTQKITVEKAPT

Assay [3] addresses T3, Myo5 SH3 (MYO5_YEAST), Q04439.
T3 chain: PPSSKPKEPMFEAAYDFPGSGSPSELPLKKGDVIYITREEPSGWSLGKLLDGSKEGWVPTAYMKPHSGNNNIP

The target of assay [4] is T4, Rvs167 SH3 (RV167_YEAST), P39743.
T4 chain: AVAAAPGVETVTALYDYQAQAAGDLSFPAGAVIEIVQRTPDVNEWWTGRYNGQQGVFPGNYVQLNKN

The target in assay [5] is Sho1 SH3 (SHO1_YEAST), P40073.
The target in assay [6] is T5, Yfr024 SH3 (LSB3_YEAST), P43603.
T5 chain: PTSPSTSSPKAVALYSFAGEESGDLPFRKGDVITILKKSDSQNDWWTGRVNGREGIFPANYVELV

The target in assay [7] is T6, Yhr016c SH3 (YSC84_YEAST), P32793.
T6 chain: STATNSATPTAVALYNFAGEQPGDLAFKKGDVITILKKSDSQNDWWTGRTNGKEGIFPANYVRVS

Chain of Sho1 SH3 (SHO1_YEAST), P40073 (P40073 295-366): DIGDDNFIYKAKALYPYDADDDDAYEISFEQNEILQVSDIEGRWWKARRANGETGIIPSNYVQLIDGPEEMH

As to IRTYKVVPLGPKAG [YBL088C 2501-2514], the normalised SPOT signal, Boehringer light units (BLU); mean over the file's lines of this peptide in assay [1] was 146; in assay [2] it was 38.8; in assay [3] it was 100; in assay [4], 38.5; in assay [5], 61.2; in assay [6] it was 115. For the same molecule, in assay [7], the normalised SPOT signal, Boehringer light units (BLU); mean over the file's lines of this peptide was 44.5.
As to INNNKMRPHLPPLS [YHR102W 535-548], the normalised SPOT signal, Boehringer light units (BLU); mean over the file's lines of this peptide in assay [1] came out at 1310; in assay [2], 646; in assay [3], 1000; in assay [4], 1550; in assay [5] it was 649; in assay [6] it was 4850. The molecule also gave a normalised SPOT signal, Boehringer light units (BLU); mean over the file's lines of this peptide in assay [7] of 1230.
Consider INNTRLSPNSPTPP [YER164W 1330-1343], for which the normalised SPOT signal, Boehringer light units (BLU); mean over the file's lines of this peptide in assay [1] came to 58.4; in assay [2] it was 6.8; in assay [3], 140; in assay [4], 31.5; in assay [5], 42.9; in assay [6] it was 58.4. For the same molecule, the normalised SPOT signal, Boehringer light units (BLU); mean over the file's lines of this peptide in assay [7] was 7.1.
Consider INTFKTLPTKPEMQ [YDL202W 181-194], for which the normalised SPOT signal, Boehringer light units (BLU); mean over the file's lines of this peptide in assay [1] was 37.3; in assay [2] it was 11.5; in assay [3], 167; in assay [4], 73.4; in assay [5] it was 14500; in assay [6] it was 110. In assay [7], this molecule had a normalised SPOT signal, Boehringer light units (BLU); mean over the file's lines of this peptide of 14.5.
For INGEKASPFLPSSL [YNL023C 312-325], the normalised SPOT signal, Boehringer light units (BLU); mean over the file's lines of this peptide amounted to 100 in assay [1]; 23.2 in assay [2]; 184 in assay [3]; 50.3 in assay [4]; 19 in assay [5]; 12.1 in assay [6]. Besides, the normalised SPOT signal, Boehringer light units (BLU); mean over the file's lines of this peptide in assay [7] was found to be 33.2.
As for IQQNKQGPKIPFYL [YBR028C 374-387], the normalised SPOT signal, Boehringer light units (BLU); mean over the file's lines of this peptide was found to be 107 in assay [1]; 12.3 in assay [2]; 86.9 in assay [3]; 23.5 in assay [4]; 19.8 in assay [5]; 19 in assay [6]. The normalised SPOT signal, Boehringer light units (BLU); mean over the file's lines of this peptide in assay [7] was 5.
Turning to IPAPKLVPPPPRTR [YNR039C 117-130], the normalised SPOT signal, Boehringer light units (BLU); mean over the file's lines of this peptide in assay [1] turned out to be 17300; in assay [2], 26.7; in assay [3] it was 82300; in assay [4] it was 294; in assay [5] it was 99.1; in assay [6], 3260. The molecule also showed a normalised SPOT signal, Boehringer light units (BLU); mean over the file's lines of this peptide in assay [7] of 167.
Regarding IPYEKRDPTSPAPL [YLR129W 367-380], the normalised SPOT signal, Boehringer light units (BLU); mean over the file's lines of this peptide turned out to be 43.8 in assay [1]; 7.7 in assay [2]; 114 in assay [3]; 58.4 in assay [4]; 29.3 in assay [5]; 51.8 in assay [6]. The molecule also gave a normalised SPOT signal, Boehringer light units (BLU); mean over the file's lines of this peptide in assay [7] of 26.9.
On to ISADKGFPLIPSGY [YLR290C 162-175], for which the normalised SPOT signal, Boehringer light units (BLU); mean over the file's lines of this peptide in assay [1] was 30.1; in assay [2] it was 16.8; in assay [3], 113; in assay [4] it was 32.4; in assay [5], 32.9; in assay [6], 38.2. The normalised SPOT signal, Boehringer light units (BLU); mean over the file's lines of this peptide in assay [7] is 14.4.
Regarding INIAKAHPNFPIAL [YKL182W 717-730], the normalised SPOT signal, Boehringer light units (BLU); mean over the file's lines of this peptide in assay [1] amounted to 53.5; in assay [2] it was 20.4; in assay [3], 196; in assay [4], 10.4; in assay [5], 42.9; in assay [6] it was 0. In assay [7], this molecule had a normalised SPOT signal, Boehringer light units (BLU); mean over the file's lines of this peptide of 2.8.
In the case of INVEREAPMFPVPY [YHR014W 144-157], the normalised SPOT signal, Boehringer light units (BLU); mean over the file's lines of this peptide in assay [1] was 75.5; in assay [2] it was 1.3; in assay [3], 149; in assay [4], 36.9; in assay [5] it was 49.4; in assay [6] it was 24.3. In assay [7], this molecule returned a normalised SPOT signal, Boehringer light units (BLU); mean over the file's lines of this peptide of 19.4.

(Values after paper PMC314469, “Protein Interaction Networks by Proteome Peptide Scanning” (PLoS Biology, 2004).)
